The results in this text go back to the RNAGym collection of RNA variant scans (doi:10.1073/pnas.2313332121).

B1: TPR t1 (parent)
chain: GACCAAUCUGCCCUCAGAGCUCGAGAACAUCUUCGGAUGCAGAGGAGGCAGGCUUCGGUGGCGCGAUAGCGCCAACGUCCUCAACCUCCAAUGCAUCCCACCACAUGAUGAUGCCUGAAGAGCCUUGGUUUUUUG

The data set covers variants of B1. As to the kind of experiment: polymerase ribozyme fitness, log enrichment relative to wild type (log ratio); higher = more active; in vitro selection for triplet polymerase activity. In short, it runs like this:
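Mutant libraries of both subunits of a heterodimeric triplet polymerase ribozyme were PCR-built, transcribed, and selected once in triplicate, with frozen incubation at −7 °C and capture of gel-excised extended constructs on streptavidin beads before RT-PCR. Illumina sequencing of input and output libraries was filtered to genotypes with ≥10 input reads and ≥1 read per output. Fitness is the logarithm of genotype enrichment over wild-type enrichment, using inverse-variance-weighted replicate averages. The logarithm is base 2.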
In the case of C15U A105U, the “polymerase ribozyme fitness (log ratio)” value was -3.42.
Turning to C15G G107A, the “polymerase ribozyme fitness (log ratio)” value was -5.32.
For A16U C20A C64U U87C U130C the value was -4.77; for C15U A41G G57C C62U U112A G122A G135A, -1.87; for C15U C98U, -2.28.
For C15A C72U the value was -2.75; for C15A C72A, -1.94.
As to C15G G63C U96C G117C U130G, the “polymerase ribozyme fitness (log ratio)” value was -0.822.
In the case of C15G G42C G60U C94U A118U it was -3.25; in that of A16G G61C, -2.19.
For C15G G60A G117U the value was -0.472; for C15G C88G G120C, -1.47; for C15A U33C C70U A111U, -5.94.
Regarding C15U A37C G61C, the “polymerase ribozyme fitness (log ratio)” value is -3.39.
In the case of U14G C62U U78C it was -2.77.
On to C15U C56U U87G G113A U130A, for which the “polymerase ribozyme fitness (log ratio)” value is -3.68.
On to C15U A46G G69C C86G C124U, for which the “polymerase ribozyme fitness (log ratio)” value was -3.98.
In the case of U14G U54C it was -2.42; in that of C15A A41C C104U, -2.15; in that of C15U U54A C80A, -4.07.
For A16C G120A the value was -2.28.
For C15U C34A G45C the value was -6.34; for C15U C101U, -1.84.
For C15U C101A, the “polymerase ribozyme fitness (log ratio)” value is -2.35.
As for C15U G61A C82U C85A C86G, the “polymerase ribozyme fitness (log ratio)” value is -2.18.
For A16U C79U G110A the value was -2.61.
For C15G G44U C72U the value was -4.59.
For C15U G36A A121C the value was 0.213; for C15G G113C, -6.27; for C15U C53A A83C, -1.46.
With C15A C85G C94A, the “polymerase ribozyme fitness (log ratio)” value is -3.92.
For the variant C15U C34A G60C C82G A105G G113U, the “polymerase ribozyme fitness (log ratio)” value was -6.14.
In the case of U14G A43U G63C G71U C88G it was -7.34; in that of C15U C53G C64A C104A C124U, -6.1.
Regarding A16U A18U U133A, the “polymerase ribozyme fitness (log ratio)” value was -4.63.
In the case of C15G U59G it was -2.27.
For C15A G51A A74U C79G A111C A118U the value was -6.36; for C15U G48A G57A C86A, -3.37.
For C15G G48A U78G C97U A111U the value was -6.43; for C15A A43G C53U, -3.68.
For A16U C62A A105C, the “polymerase ribozyme fitness (log ratio)” value was -4.73.
In the case of C15U G63A C79A C97U U112G it was -4.94.
Consider A16C G42U G57C A118U, for which the “polymerase ribozyme fitness (log ratio)” value was -2.43.
For U14C G63C U112G G113U the value was -5.75; for A16C C20U C70U, -4.3; for C15G G52U C89G G117C, -1.36.
For A16G C49A A68G C73U the value was -4.78.
In the case of C15U G113U it was -3.92; in that of C15U G17U A74C U78G C80U C115A, -2.32.
Turning to U14G G45A A121U, the “polymerase ribozyme fitness (log ratio)” value amounted to 0.629.
In the case of U14C C22U U32C it was -5.53.
For C15U A18U G44U G69U G117C A121C the value was -4.92; for C15A G71U C104A, -4.07; for C15A A43U C76G, -3.73.
For A16U C73A the value was -2.64; for C15G A43U C64A A84G C85G A90C U112G U132C, -6.82.
Consider U14C A50U U96C C115U A121U, for which the “polymerase ribozyme fitness (log ratio)” value was -5.13.
For C15U G42U G120U G127C the value was -2.69; for U14G G44C C86U C89U G120A, -2.75.
On to C15A G120C U129A, for which the “polymerase ribozyme fitness (log ratio)” value is -1.24.
For A16U C73U G93C U96A the value was -4.76; for C15A G57A U78A G110U C124G, -3.91.
For U14G G63A the value was -2.49; for C15A U54G A90U, -3.13; for A16C C98U G110A C124A, -4.72.
In the case of A16U G23U G61A A84C C114A G117U it was -6.96; in that of A16C C79U U87A C124U, -0.106.
On to A16G C53G U87G U96A U112A, for which the “polymerase ribozyme fitness (log ratio)” value was -1.33.
For C15U C40U G61U the value was -0.881; for C15A C20U, -3.39; for C15G C22U A37G U38G G63C G110C, -5.93.
For A16G C40A C86U A90U A91C U106A U112G the value was -4.19.
For U14G U21C G42U the value was -3.13; for C15U A24G A41G C115U, -2.93; for C15U A46G G51A C56G U59C G71C U78G U92G C123U, -6.11.
For the variant C15U G122A, the “polymerase ribozyme fitness (log ratio)” value is -1.11.
In the case of C15U G47U C49A C86A U106C it was -2.3; in that of C15U G57U C102A U116G C123G, -4.08; in that of C15G A37C C49U C53U, -4.47.
For A16G G48A U126G the value was -4.19.
On to C15A G19U G63C G113A G135C, for which the “polymerase ribozyme fitness (log ratio)” value was -3.99.
Consider C15U C72G, for which the “polymerase ribozyme fitness (log ratio)” value was -1.64.
In the case of C15A A16C C72A it was -2.92.
For C15A C49U C72A U132A the value was -1.5.
